System: MS2 coat protein
Experiment: apparent KD of MS2 coat protein; designed switch direction (-1 OFF switch, 1 ON switch): -1; higher = weaker reporter binding
How it was run: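 Stalled E. coli RNA polymerase transcribed designed RNA switches on Illumina chips, which were then titrated with SNAP-549-labelled MS2 coat protein, doubling from 0.7 or 1.5 nM to 3 µM. Steps lasted from 0.8–1.5 h at the lowest concentration to 10–20 min at the highest. The apparent KD is each design's median over clusters of curve-fitted normalised fluorescence.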

[1] = input ligand: microRNA oligo, concentration not stated
[2] = Eterna round: R95, input ligand: FMN 200 uM
[3] = Eterna round: R95, input ligand: microRNA oligo, concentration not stated
[4] = Eterna round: R95, input ligand: none

With “AAUUGACGCCAAAUAUACAACAUGAGGAUCACCCAUGUACCCUAGGUACGCUCGCAGGCAAGCUUUGCUCGUCCACA [Eternabot (L1) Solution 33] (Eterna round: R97, puzzle: Sensor, turn-off variant 1)” the “apparent KD of MS2 coat protein” value (input ligand: FMN 200 uM) was 40.2 nM and the “apparent KD of MS2 coat protein” value (input ligand: none) was 47.9 nM.
“AAUUUCAUUGUGAGGAUAUGCCCAAAUAAAAGCGGGCAGAAGGCACAUGAGGAUCACCCAUGUCCUGCGGUUAU [salish99_bmx4_r4_152] (Eterna round: R97, puzzle: Brourd's mod of Exclusion 4)” was tested, and the “apparent KD of MS2 coat protein” value (input ligand: FMN 200 uM) was 471 nM and the “apparent KD of MS2 coat protein” value (input ligand: none) was 37.5 nM.
With “ACAAGAUCGGAAGGAUAUUGUACAUGAGGAUCACCCAUGUAAUAAAUGAGGAUCACGGAUGUAGUCAAGAAGGUCCGGAUAAGA [Ostracism 3 - Jieux - Exclusion NG 2] (Eterna round: R96, puzzle: Exclusion NG 2)” the “apparent KD of MS2 coat protein” value (input ligand: FMN 200 uM) was 36.9 nM, the “apparent KD of MS2 coat protein” value [1] was 41.2 nM and the “apparent KD of MS2 coat protein” value (input ligand: none) was 43.8 nM.
In the case of “ACAAGCUUAAAAAUCCUAAACAUGAGGAUCACCCAUGUUCGUCUUAUAAAAAUAAAAAUAAAAAAUAAAAAAUAAAA [Sensor V2: 70] (Eterna round: R96, puzzle: Sensor v2, turn-off variant)”, the “apparent KD of MS2 coat protein” value (input ligand: FMN 200 uM) is reported as 49.1 nM, the “apparent KD of MS2 coat protein” value [1] is reported as 228 nM and the “apparent KD of MS2 coat protein” value (input ligand: none) is reported as 51.9 nM.
“ACAAGCUUAAUCAGUAUGAACAUGAGGAUCACCCAUGUAAAAGGGAAGACAAUUGGGUUAUUUAAAGCUCGUCUUAU [JR_STOV1_Sub016] (Eterna round: R97, puzzle: Sensor, turn-off variant 1)” was tested, and the “apparent KD of MS2 coat protein” value (input ligand: FMN 200 uM) was 57.6 nM and the “apparent KD of MS2 coat protein” value (input ligand: none) was 67.2 nM.
For “ACAAGCUUUUAGAUUUUCAACAUGAGGAUCACCCAUGUUCGUCUUAUGCUAGUGCUAGUGCGGUGUACUGGUAUUAG [JL TOV1 3.80 sellena mod] (Eterna round: R97, puzzle: Sensor, turn-off variant 1)”, the “apparent KD of MS2 coat protein” value (input ligand: FMN 200 uM) was 16.9 nM and the “apparent KD of MS2 coat protein” value (input ligand: none) was 16 nM.
In the case of “ACAAGCUUUUAGAUUUUCAACAUGAGGAUCACCCAUGUUCGUCUUAUGCUAGUGCUAGUGCGGUGUACUGGUAUUGG [JL TOV1 3.79 sellena mod] (Eterna round: R97, puzzle: Sensor, turn-off variant 1)”, the “apparent KD of MS2 coat protein” value (input ligand: FMN 200 uM) is reported as 19.2 nM and the “apparent KD of MS2 coat protein” value (input ligand: none) is reported as 19.5 nM.
With “ACAAGCUUUUUGCUCGUCUACAUGAGGAUCACCCAUGUAGUGUGUUAGUGGUGAAGAUAGAUUGAGCGUAGUAGGUA [JR_SV3TOV1_Sub072] (puzzle: Sensor v3, turn-off variant 1)” the “apparent KD of MS2 coat protein” value [2] was 102 nM, the “apparent KD of MS2 coat protein” value [3] was 79.5 nM and the “apparent KD of MS2 coat protein” value [4] was 109 nM.
In the case of “ACAAGCUUUUUGUUCGUCUUAUAAAAUCCUAAGAGGAAAACAUGAGGAUCACCCAUGUAACAAAGACGGACUCAUGU [Sesor Array 12 - Jieux - Sensor v3, turn-off variant 2] (Eterna round: R96, puzzle: Sensor v3, turn-off variant 2)”, the “apparent KD of MS2 coat protein” value (input ligand: FMN 200 uM) is reported as 11.5 nM and the “apparent KD of MS2 coat protein” value [1] is reported as 99.1 nM.
With “ACAAGCUUUUUGUUCGUCUUAUAAAAUCCUAAGAGGAAAACAUGAGGAUCACCCAUGUAACAAAGACGGACUCAUGU [Sesor Array 12 - Jieux - Sensor v3, turn-off variant 2] (puzzle: Sensor v3, turn-off variant 2)” the “apparent KD of MS2 coat protein” value [2] was 13.4 nM, the “apparent KD of MS2 coat protein” value [3] was 125 nM and the “apparent KD of MS2 coat protein” value [4] was 10.8 nM.
With “ACACAUGAGGAUCACCCAUGUCGGGUCAUAUCCUUCGAGGGCUAGGAUAUCGGGACUACGAAGCCCGAGAAGGAGCACUCGUUA [Ceorsobi] (Eterna round: R96, puzzle: Exclusion NG 3)” the “apparent KD of MS2 coat protein” value (input ligand: FMN 200 uM) was 251 nM, the “apparent KD of MS2 coat protein” value [1] was 66.3 nM and the “apparent KD of MS2 coat protein” value (input ligand: none) was 105 nM.
For “ACACUACAUGAGGAUCACCCAUGUCAGGAUAUCGAUAUCACAACUCAUCAACCUCACUCGAGAAGGGACACAUA [wifeneedsadrink] (puzzle: Exclusion 1)”, the “apparent KD of MS2 coat protein” value [3] was 22.1 nM.
“ACACUGCGAGGAUAUACAUGAGGAUCACCCAUGUGUCGGCAGGUACGGUAGCACUAGUGUAGAAGGCGCAUUAG [EX3 #40] (Eterna round: R97, puzzle: Exclusion 3)” was tested, and the “apparent KD of MS2 coat protein” value (input ligand: FMN 200 uM) was 17 nM and the “apparent KD of MS2 coat protein” value (input ligand: none) was 15.4 nM.
“ACAGCGUGAGGAUAUACAUGAGGAUCACCCAUGUAUGGCAGGUUAUCCUGUCGUAUGUGUAGAAGGCACGCUGU [Exclusion 3 - Oddities v.3 ( A small slide from ms2 to fmn)] (puzzle: Exclusion 3)” was tested, and the “apparent KD of MS2 coat protein” value [3] was 50.8 nM.
With “ACAGUUCUGCAAGGAUAUCGUCCUAGUUUGUUUCGAGAAGGUGCUUUAGUUUAUUCCUUUUGUUUACAUGAGGAUCACCCAUGU [JR_ExcNG1_Sub050] (Eterna round: R96, puzzle: Exclusion NG 1)” the “apparent KD of MS2 coat protein” value [1] was 18 nM.
For “ACAUCACAGCUAGGAUAUAGAUGACAUGAGGAUCACCCAUGUUGUCCCAUGUUGACGAAAACCGACUAGAAGGAGCUACAGAUG [Ex NG2 #5] (Eterna round: R96, puzzle: Exclusion NG 2)”, the “apparent KD of MS2 coat protein” value (input ligand: FMN 200 uM) was 59.3 nM, the “apparent KD of MS2 coat protein” value [1] was 52.6 nM and the “apparent KD of MS2 coat protein” value (input ligand: none) was 50.1 nM.
For “ACAUCACAGCUAGGAUAUAUAUGACAUGAGGAUCACCCAUGUUGUCCCAUGUUGACGAAAACCGAAUAGAAGGAGCCACAGAUG [Ex NG2 #3] (Eterna round: R96, puzzle: Exclusion NG 2)”, the “apparent KD of MS2 coat protein” value (input ligand: FMN 200 uM) was 91.3 nM, the “apparent KD of MS2 coat protein” value [1] was 61.5 nM and the “apparent KD of MS2 coat protein” value (input ligand: none) was 67.2 nM.
With “ACAUGACUAGGAUAUACAUGAGGAUCACCCAUGUGACCACAAACAUGCUAUAUGGGCAGUAGAAGGAGUUGGAA [Eternabot (L1) Solution 86] (Eterna round: R97, puzzle: Exclusion 3)” the “apparent KD of MS2 coat protein” value (input ligand: FMN 200 uM) was 82.9 nM and the “apparent KD of MS2 coat protein” value (input ligand: none) was 75.9 nM.
In the case of “ACAUGAGGAUCACCCAUGUAAUCAUAAUGGCUGAUGUAGAGUCAGGAUAUGUGUGGCUUACUAUCGCAGAAGGGACAAGACUGG [Deportation 33 - Jieux - Exclusion NG 3] (Eterna round: R96, puzzle: Exclusion NG 3)”, the “apparent KD of MS2 coat protein” value (input ligand: FMN 200 uM) is reported as 26.3 nM, the “apparent KD of MS2 coat protein” value [1] is reported as 14.2 nM and the “apparent KD of MS2 coat protein” value (input ligand: none) is reported as 25.9 nM.
In the case of “ACAUGAGGAUCACCCAUGUAAUCAUGAUGGCUGAUGUAGACUCAGGAUAUGUGUGGCUUUCUAUCACAGAAGGGAGAAGACUGG [Deportation 37 - Jieux - Exclusion NG 3] (Eterna round: R96, puzzle: Exclusion NG 3)”, the “apparent KD of MS2 coat protein” value (input ligand: FMN 200 uM) is reported as 59.7 nM, the “apparent KD of MS2 coat protein” value [1] is reported as 116 nM and the “apparent KD of MS2 coat protein” value (input ligand: none) is reported as 129 nM.
In the case of “ACAUGAGGAUCACCCAUGUACAGGGUUUAGUUUCAUCGUUUGAAGGAUAUACACUGUUAGUUGUCGUAGAAGGUCACUGAUUGG [JR_ExcNG3_Sub010] (Eterna round: R96, puzzle: Exclusion NG 3)”, the “apparent KD of MS2 coat protein” value (input ligand: FMN 200 uM) is reported as 93.9 nM, the “apparent KD of MS2 coat protein” value [1] is reported as 93.3 nM and the “apparent KD of MS2 coat protein” value (input ligand: none) is reported as 130 nM.
With “ACAUGAGGAUCACCCAUGUCCGGCUGGUCCGUCUCGGCUGUCGAGGAUAUAGCUCGGUAUCCGCGCUAGAAGGCGGGAGCCGGA [Aenatbe mod 84] (Eterna round: R96, puzzle: Exclusion NG 3)” the “apparent KD of MS2 coat protein” value (input ligand: FMN 200 uM) was 45.3 nM, the “apparent KD of MS2 coat protein” value [1] was 29.1 nM and the “apparent KD of MS2 coat protein” value (input ligand: none) was 44.4 nM.
For “ACAUGAGGAUCACCCAUGUCCGGCUGGUCUGUCUCGGCUGUCGAGGAUAUAGCACGGUAUCCGCGCUAGAAGGCGGGAGCCGGG [Aenatbe mod 88] (Eterna round: R96, puzzle: Exclusion NG 3)”, the “apparent KD of MS2 coat protein” value (input ligand: FMN 200 uM) was 237 nM, the “apparent KD of MS2 coat protein” value [1] was 127 nM and the “apparent KD of MS2 coat protein” value (input ligand: none) was 193 nM.

Reference: the supplement of paper PMC9170038
